Assay results taken from paper doi:10.1101/563890 (bioRxiv, 2019).

Biological target: CXCL12 (UniProt P48061-2 22-89)
Test: MST

Chain of CXCL12 (P48061 22-89): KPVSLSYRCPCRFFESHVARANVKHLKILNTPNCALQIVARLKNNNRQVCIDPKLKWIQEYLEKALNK

Kd: 4 ± 0.4 µM
B1: 6His-tagged full-length HMGB1 (residues 1-214), labelled with NT647 (natural protein, UniProt P63159 1-215, looked up)
chain: MGKGDPKKPRGKMSSYAFFVQTCREEHKKKHPDASVNFSEFSKKCSERWKTMSAKEKGKFEDMAKADKARYEREMKTYIPPKGETKKKFKDPNAPKRPPSAFFLFCSEYRPKIKGEHPGLSIGDVAKKLGEMWNNTAADDKQPYEKKAAKLKEKYEKDIAAYRAKGKPDAAKKGVVKAEKSKKKKEEEDDEEDEEDEEEEEEEEDEDEEEDDDDE
modifications: non-covalently labelled with the NT647 fluorescence dye
